From the supplement of paper PMC7125110
± gives the standard error. Fewer inactive variants are shown than the library holds.

B1: glmS ribozyme (parent)
chain: AUAAAAGCGCCAGAACUACAGAAAUGUAGUUGACGAGGAGGAGGUUUAUCGAAUUUUCGGCGGAUGCCUCCAAA

Assays:
Conditions in all cases: with glucosamine-6-phosphate
glucosamine-6-phosphate [1] = variants of: B1; test: self-cleavage kobs at 160 uM GlcN6P; higher = faster cleavage; RNA array
Outline: (§1)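 Weighted Michaelis–Menten fits across concentrations supplied kcat and KM, based on kobs from one- or two-exponential decay fits to normalised per-tile medians. The data came from barcoded ribozyme variants transcribed in situ by E. coli RNA polymerase on sequenced MiSeq chips and tracked at 37 °C by a hybridised Cy3 probe. Glucosamine-6-phosphate (40 μM to 10 mM) in HEPES/KCl/Mg(OAc)2 buffer was flowed in.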

glucosamine-6-phosphate [2] = variants of: B1; test: self-cleavage kobs at 640 uM GlcN6P; higher = faster cleavage; RNA array
Outline: as §1

glucosamine-6-phosphate [3] = variants of: B1; test: self-cleavage kobs at 2500 uM GlcN6P; higher = faster cleavage; RNA array
Outline: as §1

glucosamine-6-phosphate [4] = variants of: B1; test: self-cleavage kobs at 10000 uM GlcN6P; higher = faster cleavage; RNA array
Outline: as §1

Row | Variant | self-cleavage kobs at 160 uM GlcN6P (glucosamine-6-phosphate [1]) | self-cleavage kobs at 640 uM GlcN6P (glucosamine-6-phosphate [2]) | self-cleavage kobs at 2500 uM GlcN6P (glucosamine-6-phosphate [3]) | self-cleavage kobs at 10000 uM GlcN6P (glucosamine-6-phosphate [4])
1 | A33U G37A | < 1e-05 s⁻¹ |  |  | 
2 | C10U A39U C67G | < 1e-05 s⁻¹ | < 1e-05 s⁻¹ |  | 
3 | G41A G62C | < 1e-05 s⁻¹ | < 1e-05 s⁻¹ | < 1e-05 s⁻¹ | 
4 | C16U G32A G51U | < 1e-05 s⁻¹ |  |  | 
5 | A33U C58U | < 1e-05 s⁻¹ | < 1e-05 s⁻¹ |  | 
6 | G35C A36C | < 1e-05 s⁻¹ | < 1e-05 s⁻¹ |  | < 1e-05 s⁻¹
7 | G37U C70U C71A | < 1e-05 s⁻¹ |  |  | 
8 | G40C A48U C61U | < 1e-05 s⁻¹ | < 1e-05 s⁻¹ |  | 
9 | G63A C67U | < 1e-05 s⁻¹ |  |  | 
10 | U30A G44C | < 1e-05 s⁻¹ |  |  | 
11 | A12C U31G U47A | 0.000155 ± 5.6e-05 s⁻¹ | 0.000707 ± 0.00032 s⁻¹ |  | 
12 | A12G G35C | < 1e-05 s⁻¹ | < 1e-05 s⁻¹ |  | < 1e-05 s⁻¹
13 | A15G C58A C70U | 0.000138 ± 2.8e-05 s⁻¹ | 8.95e-05 ± 1.1e-05 s⁻¹ | 0.000182 ± 4.8e-05 s⁻¹ | 0.000281 ± 5.3e-05 s⁻¹
14 | A6C A14G G29C A39C U54A | < 1e-05 s⁻¹ | < 1e-05 s⁻¹ |  | 
15 | C10U C11U G13A | < 1e-05 s⁻¹ | < 1e-05 s⁻¹ | < 1e-05 s⁻¹ | 
16 | A42C U69A | 5.29e-05 ± 2.2e-05 s⁻¹ | 0.000125 ± 3.8e-05 s⁻¹ | 0.000182 ± 4.1e-05 s⁻¹ | 0.0008 ± 0.00018 s⁻¹
17 | G7U A14C G66U | < 1e-05 s⁻¹ |  | < 1e-05 s⁻¹ | 
18 | G41U U65A C68G | < 1e-05 s⁻¹ |  | < 1e-05 s⁻¹ | 
19 | U31A A64U | < 1e-05 s⁻¹ |  |  | 4.44e-05 ± 1.1e-05 s⁻¹
20 | C8G G13A U54A G62A | < 1e-05 s⁻¹ | < 1e-05 s⁻¹ |  | 
21 | A14C A36C U65G | < 1e-05 s⁻¹ | < 1e-05 s⁻¹ | < 1e-05 s⁻¹ | 
22 | A33U C50U C61A C68G C70U | 0.000144 ± 4.4e-05 s⁻¹ | 0.000229 ± 6.4e-05 s⁻¹ |  | 
23 | G37C U65A | < 1e-05 s⁻¹ | < 1e-05 s⁻¹ |  | 
24 | G35U G37C U45C | < 1e-05 s⁻¹ |  | < 1e-05 s⁻¹ | 
25 | A6C C34U U56C | < 1e-05 s⁻¹ |  |  | 
26 | A6U G43C U57G C67U | < 1e-05 s⁻¹ |  | < 1e-05 s⁻¹ | < 1e-05 s⁻¹
27 | C16U C58U | < 1e-05 s⁻¹ |  | 2.45e-05 ± 6.4e-06 s⁻¹ | 9.48e-05 ± 8.5e-06 s⁻¹
28 | G9C A64C | < 1e-05 s⁻¹ | < 1e-05 s⁻¹ |  | < 1e-05 s⁻¹
